B1: polypeptide of SEQ ID NO:31 (a specific polypeptide of SEQ ID NO: 10, s1m1 family VacA-derived polypeptide) (other)
chain: AFFTTVIIPAIVGGIATGTAVGTVSGLLGWGLKQAEEANKTPDKPDKVWRIQAGKGFNEFPNKEYDLYKSLLSSKIDGGWDWGNAATHYWIKGGQWNKLEVDMKDAVGTYKLSGLRNFTGGDLDVNMQKATLRLGQFNGNSFTSYKDSADRTTRVDFNAKNILIDNFLEINNRVGSGAGRKASSTVLTLQASEGITSSKNAEISLYDGATLNLASNSVKLNGNVWMGRLQYVGAYLAPSYSTINTSKVTGEVNFNHLTVGDHNAAQAGIIASNKTHIGTLDLWQSAGLNIIAPPGGKDTVVNIDRINTKADGTIKVGGFKASLTTNAAHLNIGKGGVNLSNQASGRTLLVENLTGNITVDGPLRVNNQVGGYALAGSSANFEFKAGVDTKNGTATFNNDISLGRFVNLKVDAHTANFKGIDTGNGGFNTLDFSGVTNKVNINKLITASTNVAVKNFNINELIVKTNGVSVGEYTHFSEDIGSQSRINTVRLETGTRSIFSGGVKFKSGEKLVIDEFYYSPWNYFDARNIKNVEITRKFASSTPENPWGTSKLMFNNLTLGQNAVMDYSQFSNLTIQGDFINNQGTINYLVRGGKVATLNVGNAAAMMFNNDIDSATGFYKPLIKINSAQDLIKNTEHVLLKAKIIGYGNVSTGTNGISNVNLEEQFKERLALYNNNNRMDTCVVRNTDDIKACGMAIGNQSMVNNPDNYKYLIGKAWKNIGISKTANGSKISVYYLGNSTPTENGGNTTNLPTNTTNNARFASYA
notes: Engineered polypeptide derived from the H. pylori VacA s1m1 family, expressed in CHO or HEK cells and purified

What was measured:
[1] = target: B1; experiment: SPR (Biacore T200), TGFβ R1 amine-coupled on CM5, equilibrium model
[2] = target: B1; experiment: SPR (Biacore T200), TGFβ R1 amine-coupled on CM5, multi-cycle, two-state kinetic model
human TGFβ receptor 2 [3] = target: T1, human TGFβ receptor 2 (human, UniProt P37173 23-166, limits assumed); experiment: SPR (Biacore T200), TGFβ R2 amine-coupled on CM5, equilibrium model
T1 construct: Immobilised on a CM5 sensor by direct amine coupling; also called TGFβ R2; TGFB-R2

human TGFβ receptor 2 [4] = target: T1, human TGFβ receptor 2; experiment: SPR (Biacore T200), TGFβ R2 amine-coupled on CM5, multi-cycle, two-state kinetic model

T1 sequence (P37173 23-166 limits assumed): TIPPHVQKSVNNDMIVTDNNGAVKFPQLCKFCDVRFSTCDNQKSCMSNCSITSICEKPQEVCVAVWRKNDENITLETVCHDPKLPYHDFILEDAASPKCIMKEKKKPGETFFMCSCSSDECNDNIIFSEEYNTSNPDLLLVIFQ

Row | Binder | Kd [1] | Kd [2] | koff [2] | kon [2] | Kd (human TGFβ receptor 2 [3]) | Kd (human TGFβ receptor 2 [4]) | koff (human TGFβ receptor 2 [4]) | kon (human TGFβ receptor 2 [4])
1 | human TGFβ receptor 1 (receptor, UniProt P36897 34-126, looked up, Immobilised on a CM5 sensor by direct amine coupling; also called TGFβ R1; TGF-bR1) LQCFCHLCTKDNFTCVTDGLCFVSVTETTDKVIHNSMCIAEIDLIPRDRPFVCAPSSKTGSVTTTYCCNQDHCNKIELPTTVKSSPGLGPVEL | 2900 nM | 2310 nM | 0.603 s⁻¹ | 220000 M⁻¹ s⁻¹ | – | – | – | –
2 | B1 | – | – | – | – | 5.61 µM | 5.07 µM | 6670 s⁻¹ | 1.08e+09 M⁻¹ s⁻¹

— patent EP4669337B1 (ATOPIA THERAPEUTICS SA, dated 2025)
